Experimental data reported in the RNAGym collection of RNA variant scans (doi:10.7554/elife.80360).

B1: CPEB3 Ribozyme (parent)
chain: GGGGGCCACAGCAGAAGCGUUCACGUCGCGGCCCCUGUCAGAUUCUGGUGAAUCUGCGAAUUCUGCUGU

Variants of: B1
Assay: self-cleavage, relative activity (ratio to wild type); higher = more cleavage; co-transcriptional

Variant	self-cleavage
U26G C34A	0.57
U26G C35U	0.726
U26G C45U	0.982
U26G C57U	0.255
U26G C63G	0.427
U26G C66A	0.533
U26G C66U	0.888
U26G G28A	0.183
U26G G28U	0.178
U26G G30A	0.509
U26G G31C	0.131
U26G G31U	0.242
U26G G37C	0.162
U26G G41U	0.756
U26G G47A	0.893
U26G G47U	0.916
U26G G48A	0.937
U26G G48C	0.959
U26G G58C	0.799
U26G G65U	0.53
U26G U36A	0.186
U26G U49A	0.918
U26G U55A	0.737
U26G U55C	0.787

Variant	self-cleavage
U26G U61A	0.621
U26G U61C	0.418
U26G U62A	0.818
U26G U62G	0.617
U26G U64G	0.784
C27A A51C	0.494
C27A A51G	0.67
C27A A52G	0.708
C27A A52U	0.547
C27A A59G	0.353
C27A A60C	0.23
C27A C29A	0.184
C27A C29U	0.21
C27A C32U	0.543
C27A C35G	0.256
C27A C45U	0.596
C27A C54G	0.156
C27A C54U	0.602
C27A C57G	0.298
C27A C63G	0.219
C27A C63U	0.463
C27A C66U	0.516
C27A G30U	0.232
C27A G31A	0.171

Variant	self-cleavage
C27A G31U	0.165
C27A G37A	0.203
C27A G41U	0.16
C27A G47A	0.734
C27A G48A	0.745
C27A G48C	0.652
C27A G48U	0.706
C27A G56A	0.276
C27A G58C	0.605
C27A G68C	0.765
C27A G68U	0.811
C27A U36A	0.207
C27A U38G	0.141
C27A U43C	0.404
C27A U46C	0.621
C27A U49A	0.763
C27A U53G	0.338
C27A U61A	0.28
C27A U64C	0.343
C27A U67G	0.635
C27G A40G	0.243
C27G A40U	0.17
C27G A42U	0.136
C27G A51C	0.187

Variant	self-cleavage
C27G A60C	0.238
C27G C29A	0.186
C27G C29U	0.121
C27G C33A	0.29
C27G C33U	0.188
C27G C34A	0.207
C27G C39A	0.166
C27G C39G	0.263
C27G C45A	0.17
C27G C45U	0.229
C27G C54A	0.187
C27G C57U	0.189
C27G C63A	0.197
C27G C66G	0.119
C27G G28A	0.147
C27G G31U	0.2
C27G G37A	0.135
C27G G37U	0.165
C27G G41C	0.176
C27G G47A	0.265
C27G G47U	0.17
C27G G48C	0.241
C27G G48U	0.163
C27G G56A	0.178

Variant	self-cleavage
C27G G56U	0.156
C27G G58A	0.16
C27G G65C	0.234
C27G G65U	0.164
C27G G68A	0.228
C27G U36C	0.168
C27G U36G	0.14
C27G U38G	0.255
C27G U43A	0.133
C27G U43G	0.154
C27G U44A	0.212
C27G U44C	0.145
C27G U55C	0.137
C27G U61C	0.169
C27G U61G	0.172
C27G U64C	0.254
C27G U69G	0.29
C27U A40C	0.198
C27U A42U	0.167
C27U A59C	0.127
C27U A59G	0.246
C27U A59U	0.212
C27U A60U	0.205
C27U C29G	0.114

Variant	self-cleavage
C27U C29U	0.189
C27U C34G	0.24
C27U C35G	0.14
C27U C39U	0.254
C27U C45A	0.216
C27U C45U	0.35
C27U C57U	0.204
C27U C63A	0.165
C27U C63G	0.263
C27U G28A	0.126
C27U G31C	0.143
C27U G37A	0.187
C27U G41A	0.147
C27U G47A	0.459
C27U G48A	0.431
C27U G48U	0.504
C27U G50C	0.272
C27U G56U	0.197
C27U G68C	0.385
C27U U36C	0.201
C27U U38G	0.17
C27U U43C	0.285
C27U U49A	0.442
C27U U49C	0.301

Variant	self-cleavage
C27U U53A	0.25
C27U U53G	0.18
C27U U55G	0.188
C27U U61A	0.22
C27U U61G	0.277
C27U U62C	0.189
C27U U62G	0.276
C27U U64A	0.161
C27U U67G	0.4
C27U U69A	0.502
G28A	0.213
G28A A40C	0.15
G28A A51G	0.229
G28A A52C	0.182
G28A A52U	0.276
G28A A59C	0.185
G28A A59G	0.17
G28A C34G	0.139
G28A C34U	0.244
G28A C35G	0.188
G28A C39G	0.157
G28A C45U	0.202
G28A C54A	0.175
G28A C63U	0.195

Variant	self-cleavage
G28A C66A	0.189
G28A C66U	0.165
G28A G30A	0.156
G28A G30U	0.155
G28A G31A	0.153
G28A G31U	0.197
G28A G41A	0.178
G28A G41U	0.148
G28A G47A	0.22
G28A G48A	0.19
G28A G48C	0.213
G28A G48U	0.19
G28A G50C	0.226
G28A G65A	0.152
G28A G65U	0.172
G28A G68A	0.294
G28A U36A	0.154
G28A U38A	0.176
G28A U49A	0.181
G28A U53A	0.198
G28A U55A	0.169
G28A U55G	0.167
G28A U61G	0.214
G28A U62G	0.208

Variant	self-cleavage
G28A U64C	0.151
G28A U64G	0.205
G28C	0.173
G28C A42C	0.183
G28C A42G	0.128
G28C A52C	0.198
G28C A52G	0.174
G28C A60C	0.217
G28C C33G	0.166
G28C C34A	0.127
G28C C35G	0.17
G28C C39A	0.156
G28C C39U	0.207
G28C C45A	0.135
G28C C45U	0.194
G28C C54A	0.151
G28C C63A	0.186
G28C C63G	0.198
G28C G30U	0.2
G28C G48C	0.135
G28C G50A	0.166
G28C G50C	0.168
G28C G50U	0.143
G28C G56A	0.181

Variant	self-cleavage
G28C G56C	0.192
G28C G58A	0.156
G28C G58U	0.187
G28C G65U	0.16
G28C G68C	0.147
G28C U38A	0.222
G28C U38G	0.133
G28C U44G	0.191
G28C U46A	0.173
G28C U46C	0.131
G28C U46G	0.118
G28C U49A	0.126
G28C U49G	0.182
G28C U55A	0.241
G28C U61A	0.256
G28C U61G	0.229
G28C U62G	0.209
G28C U64C	0.194
G28C U67A	0.182
G28C U69C	0.276
G28C U69G	0.301
G28U	0.178
G28U A40U	0.213
G28U A42C	0.153

Variant	self-cleavage
G28U A51U	0.182
G28U A52G	0.18
G28U A59C	0.251
G28U A60U	0.138
G28U C29G	0.129
G28U C32G	0.217
G28U C32U	0.226
G28U C33U	0.155
G28U C34G	0.219
G28U C34U	0.204
G28U C35U	0.192
G28U C39U	0.171
G28U C45G	0.162
G28U C54U	0.178
G28U C57A	0.188
G28U C57G	0.161
G28U G31A	0.24
G28U G37A	0.206
G28U G48C	0.169
G28U G48U	0.198
G28U G50U	0.165
G28U G56A	0.14
G28U G56C	0.163
G28U G56U	0.137

Variant	self-cleavage
G28U G58U	0.182
G28U G65A	0.146
G28U G65U	0.2
G28U G68A	0.195
G28U G68U	0.208
G28U U36A	0.168
G28U U36G	0.106
G28U U43A	0.135
G28U U43G	0.0809
G28U U44A	0.135
G28U U44C	0.181
G28U U53C	0.157
G28U U55G	0.168
G28U U61A	0.204
G28U U62C	0.127
G28U U64C	0.219
G28U U69A	0.183
G28U U69C	0.235
C29A A51C	0.534
C29A A59C	0.274
C29A A59U	0.283
C29A A60C	0.307
C29A A60G	0.334
C29A C32A	0.297

Variant	self-cleavage
C29A C33G	0.281
C29A C33U	0.594
C29A C35A	0.157
C29A C39A	0.327
C29A C45A	0.635
C29A C45G	0.605
C29A C54G	0.299
C29A C54U	0.682
C29A C57U	0.247
C29A C63U	0.465
C29A C66A	0.334
C29A G37A	0.207
C29A G41A	0.215
C29A G41U	0.296
C29A G47A	0.796
C29A G50C	0.71
C29A G56A	0.492
C29A G56C	0.297
C29A G56U	0.367
C29A G58C	0.685
C29A G58U	0.795
C29A G68A	0.914
C29A U36G	0.179
C29A U43C	0.465

Variant	self-cleavage
C29A U43G	0.364
C29A U44C	0.515
C29A U44G	0.521
C29A U46A	0.845
C29A U46C	0.68
C29A U49A	0.805
C29A U55G	0.323
C29A U61C	0.374
C29A U61G	0.613
C29A U62G	0.269
C29A U67G	0.79
C29A U69A	0.91
C29A U69G	0.864
C29G A42C	0.347
C29G A51C	0.484
C29G A51G	0.541
C29G A51U	0.439
C29G A52C	0.467
C29G A59G	0.675
C29G C32U	0.313
C29G C33U	0.558
C29G C34A	0.227
